Experiments:
[1] = molecular target: His-tagged griffithsin (SeMet-labeled, E. coli-expressed) (Griffithsia sp.) (UniProt P84801); test: crystal structure
[2] = molecular target: plant-expressed griffithsin (Griffithsia sp.) (UniProt P84801); test: crystal structure

Substance: His-tagged griffithsin (SeMet-labeled, E. coli-expressed) (from UniProt P84801 1-121) (natural protein)
- stoichiometry N [1]: 2

Substance: plant-expressed griffithsin (from UniProt P84801 1-121) (natural protein)
- stoichiometry N [2]: 2

— publication PMC7126681
